Results published in the nanobody polyreactivity screen of Harvey et al. (2022).

test: yeast display, Sf9 membrane polyspecificity reagent, FACS + sequencing; frameworks hold sequencing errors
How it was run: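 Sorting gates, low and high (top ~1%), were placed on anti-HA fluorescence to track expression and on streptavidin fluorescence to track reagent binding. A clone's polyreactivity label is taken from the gate it came out of. The reagent was 10% biotinylated, detergent-solubilized Sf9 membrane, applied for 1 hour at 4 °C to galactose-induced yeast display cells.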

| Sequence | polyreactivity (PSR sort gate) |
| --- | --- |
| QVQLVESGGGLVQAGGSLRLRCAASGSIFEEYAMGWSRPAPGKERELVAAITSRGGSTYYADSVKGRFTISRDNAKNNVYLQMNSLKPEDTAVYYCAAGVASLTTGSYDYWGQGTQVTVSS | low polyreactivity |
| QVQLVESGGGLVQAGGSLRLRCAASGSIFGPNALGWYRQAAGKERELVAAISSGGSTNYADSVKGRFTISRDNAKNTVYLQMNSLKPEDTAVYYCAKDNYLDPPYFYRFAGYDYRGQGTQVTVSS | low polyreactivity |
| QVQLVESGGGLVQAGGSLRLRCAASGSIFQPYAMGWYRQAPGKERELVAAITNGGSTYYADSVKGRFTISRDNATNTVYLQMNSLKPEDTAVYYCAADVQSSHEYDYWGQGTQVTVSS | low polyreactivity |
| QVQLVESGGGLVQAGGSLRLRCAASGSIFQSNAMGWYRPAPGKESELVAAISSSGVRTYYADSVKGRFTISRDNAKNTVYLQMNSLKPEDTAVYYCATGWYYAGGPTYEYYYWGQGTQVTVSS | low polyreactivity |
| QVQLVESGGGLVQAGGSLRLRCAASGSIFSSNAMGWYRQAPGKERELVAAITSGGSTYYADSVKGRFTISRDNAKHTVYLQMNSLKPEDTAVYYCAADDWGDGVYKLDYWGQGTQVTVSS | low polyreactivity |
| QVQLVESGGGLVQAGGSLRLRCAASGSIFTSYALGWYRQAPGKERELVAAINGSGGSTFYADSVKSRFTISRDNAKYTFYLQMNSLKPEDTAVYYCNTGGPRGTTYDFWGLGTQVTVSS | low polyreactivity |
| QVQLVESGGGLVQAGGSLRLRCAASGSIFWRNAMGWYRQAPGKERELVAPISGNGGTTYYADSVKGRFTISRENAKNTVFLQMNSLKPEHTAVYYCPKVGKTYRTYEYWGQGTEVTVSS | high polyreactivity |
| QVQLVESGGGLVQAGGSLRLRCAASGSIFYFYAMGWYRQAPGQEREFVAAITRSGGRTYYADSVKGRFTISRDNAKNTVYLQMNSLKPEDTAVYYCDAVPYDKRKGDYWGQGTQVTVSS | high polyreactivity |
| QVQLVESGGGLVQAGGSLRLRCAASGSIITRYAMGWYRQAPGKERDLVAAITASGGRTYYADSVKGRFTISRDNAKNTVYFQMNSLKPEDTAVYYCNTFWRYTSQLPYDYWGQGTQVNVSS | high polyreactivity |
| QVQLVESGGGLVQAGGSLRLRCAASGSNFVSYAMGSYRQAPGKERELVATITTSTGSTYADSVKGRFTISRDNAKNTVYLLMYSLKPEDTAVYYCAARYLPWLKYDFDSWGQGTQVTVSS | low polyreactivity |
| QVQLVESGGGLVQAGGSLRLRCAASGSTFDGNAMGWYRQAPGKETELVAAITSGGSTNYADSVKGRFTISRDNANNTVYFQMYSLKPEDTAVYYCAAYTVSFSILYDYWGQGTQVTLSS | low polyreactivity |
| QVQLVESGGGLVQAGGSLRLRCAASGSTFGGYAMGWYRQAPGKERELVAAIANGDRTNYADSVKGRFIISRDNAKNTVYLQMNSLKPEDTAVYYCNKDGPSYSSYDNWGQGTQVTVSS | low polyreactivity |
| QVQLVESGGGLVQAGGSLRLRCAASGSTFGYYSMGWYRQAPGKEMELVAAISKSGGRTYYADSVKGRFTISRDTAKNTVYVQMNSLKPEDTAVYYCNKANGGDEVDYWGQGTQVTVSS | high polyreactivity |
| QVQLVESGGGLVQAGGSLRLRCAASGSTFTKNAMGWYRQAPGKERELVAAISFTTGRTYYADSVKGRFTISRDNAKNTVYLQMNSLKPEDTAVYYCNKVYARSEQRGPVAGNYWGQGTQVTVSS | high polyreactivity |
| QVQLVESGGGLVQAGGSLRLRCAASGSTILYYAMGWYRQAPGKERELVADIDWSGDSTYYADSVKRRFRISRDNAKNTVYFQMNSLKPEDTAVYYCAATQYYPVPYDYWGQGTQVTVSS | low polyreactivity |
| QVQLVESGGGLVQAGGSLRLRCAASGSTSAYYAMGWYRQAPGKERELVAAISWSGGRTYSADSVKGRFTISRDNAKNTVYLQMNSLKPEDTAVYYCAARFWFTKGYDYWGQGTQVTVSS | high polyreactivity |
| QVQLVESGGGLVQAGGSLRLRCAASGTTFSDNAMGWYRQAAGKERELVAAITSGGSTYYADSVKGRFTISRDNAKNTVYLQMNSLKPEDTAVYYCAADYWGQGTQVTVSS | low polyreactivity |
| QVQLVESGGGLVQAGGSLRLRCADSGFTLDVYAMGWYRQAPGKERELVAATSRSAGSTYYADSVKGRFTSSRDNAKNTVYLQMNSLKPEETDVYYCGARYPPRFGVVRGYSYYHTSTYSWGQGTQVTVSS | high polyreactivity |
| QVQLVESGGGLVQAGGSLRLRGAASGNTIRYYAMGWYRQAPGKERELVAAINSRGGTTSYADSVKGRFTISRDNAKNTVYLQMNSLKPEDTAVYYCNKYIRYPFKRYGYWGQGTQVTVSS | high polyreactivity |
| QVQLVESGGGLVQAGGSLRLRSAASGRTFVPYHMGCYRQAPGKERELVADISSGDSTNYTDSVKGRFTISRDNAKNTVYLQMNSLKPEDTAVYFCAADLTYTMDHWGLGTQVTVSS | low polyreactivity |
| QVQLVESGGGLVQAGGSLRLRSAATGRTYRLYAMGWYRQAPGKERELVAAITRGGRTNYADSVKGRFTISRDNAKNTVYLEMNSLKPEDTAVYYCAARYRLPIPGTQYEYWGQGTQVTVSS | low polyreactivity |

| Sequence | polyreactivity (PSR sort gate) |
| --- | --- |
| QVQLVESGGGLVQAGGSLRLSCAAAGFIFQYNGMGWYRQAPGKERELVAAITSSVNTYYADSVKGRFTISRDNAKNTVYLQMNSLKPEDTAVYYCNADDPDKSWGQGTQVTVSS | low polyreactivity |
| QVQLVESGGGLVQAGGSLRLSCAAAGIIFTGYAMGWYRQAPGKERELVAAITASGGRTYYADSVKGRYTISRDNAKNTVYLQMNSLKPEDTAVYYCNAVPTVLRVLKYDYWGQGTQVTVSS | high polyreactivity |
| QVQLVESGGGLVQAGGSLRLSCAAAGIISPFYAMGWYRQAPGKERELVADISTGGTTTYADSVKGRFTISRDNAKNTVYLQMNSLKPVDTAVYYCNAEVCLTYYWIVWASYDYWGQGTQVTVSS | low polyreactivity |
| QVQLVESGGGLVQAGGSLRLSCAAAGLISIRILMGWYRQAPGKERELVAGITSTGSTSYADSVKGRFTSSRDNAKNTVYLQMNSLKPEDTAVYYCNTKGSRPGIWPTTSGYWGHGTQVTVSS | high polyreactivity |
| QVQLVESGGGLVQAGGSLRLSCAAAGNTIRVNAMGWYRHAHGKERELVAAISFSGGRTYYADSVKGRFTISRDNAKNTVYLQMNSLKPEDTAVYYCAALRRYPRPNIYGYWGQGTQVTVSS | low polyreactivity |
| QVQLVESGGGLVQAGGSLRLSCAAAGRTFYNYAMGWYRQAPGKERELVAAIDWGSDSTYYADSVKGRFTISRDNAKNTVYLQMNSLKPEDTAVYYCAKRPKNKPVLGDYDHWGQGTQVTVSS | low polyreactivity |
| QVQLVESGGGLVQAGGSLRLSCAAAGSTFRYNDMGWYRQAPGKERELVAAITRSGGSTYYADSVKGRFTISRDTAKNTVYLQMNSLKPEDTAVYYCNRGLRYVLAEDIAVPRVPEYYWGQGTQVTVSS | low polyreactivity |
| QVQLVESGGGLVQAGGSLRLSCAACGFIFYINTMGWYRQAPGKERELVAAISQSGVGTSYADSVKGRFTISRDNAKNTVYLQMNSLKPEDTAVYDCATDFARSDVVDRFAYWRQGTQVTVSS | low polyreactivity |
| QVQLVESGGGLVQAGGSLRLSCAACGFSFWRNAMGRTRRAPGKDRELVAAISASGGSTYYADSVKGRFTISRDNATNTVFLQRNSLKPEDTAVYYCAADTQGFYRYDYWGQGTQVTVSS | low polyreactivity |
| QVQLVESGGGLVQAGGSLRLSCAACGRTFFPYAIGWYRQAPGKERELVAAITTGDITNYADSVKGRFTISRDNAKNTVYLQMNSLKPEDTAVNYCAARGYASWSYGGYPLKLDYWGQGTQVTVSS | low polyreactivity |
| QVQLVESGGGLVQAGGSLRLSCAACGSIVVGYAMGWYRQAPGKERELVAVITSDGSTNYADSVKGRFTISRDNAKHTVYLPMNSLKPEDTAVYYCAADPWLGTGRYDYWGQGTQVTVST | low polyreactivity |
| QVQLVESGGGLVQAGGSLRLSCAACGTIFRRYATGSYRQAPGKERELVAAISSGGSTYADSVKGRFTISRDNAKNTVYFQMNSLKPEDTAVYYCAAYYQLGRHPGTPNGYDYWGHGTQVTVSS | low polyreactivity |
| QVQLVESGGGLVQAGGSLRLSCAACVFIFSRYAMGWYRQAPGKERELVAAISRGGSTNYADSVKGRFTISRDNAKNTVYLQMNSLKPEDTAVYYCAVRQNVRYYYWGQGTQVTVSS | high polyreactivity |
| QVQLVESGGGLVQAGGSLRLSCAAPGSIFYPNAMGWYRQAPGKEREFVAAITKRGGSTYYADSVKGRFTISRDNAKNTVYLQMNSLKPEDTAVYYCAGERSYPRAGRYNYWGQGTQVTVSS | low polyreactivity |
| QVQLVESGGGLVQAGGSLRLSCAASAFIFISYAMGLYRQAAGKERELVAAISSSGVSTYSADSVKGRFTISRDNAKNTVYLQMNSLKPEDTAVYYCAARQQVRLRQGPLYYYWGQGTQVTVSS | high polyreactivity |
| QVQLVESGGGLVQAGGSLRLSCAASAFIFSGNAMGWNRQAPGKERELVAAISGRGGRTYYADSVKGRFTISRDNAKNTVYLQMNSLKPEDTAVYYCAADNPYLGRKFDYWGQGTQVTVSS | high polyreactivity |
| QVQLVESGGGLVQAGGSLRLSCAASAFTFRYNAMGWYRQAPGKERELVATIDWSGGRTYYADSVKGRFTISRDNAKNTVYLQMNSLKPEDTAVYYCNAAALFRYYVRWKSAYDYWGQGTQVTVSS | high polyreactivity |
| QVQLVESGGGLVQAGGSLRLSCAASAFTLLSYAMGWYRQAPGKDRELVASITQRGGSTYYADSVKGRFTISRDNAKNTVDLQMNSLKPEDTAVYYCAARSGYGYRYYYWGQGTQVTVSS | low polyreactivity |
| QVQLVESGGGLVQAGGSLRLSCAASAGIFRYYAMGWYRQAPGKERELVAAITSSGTSTYYADSVKGRFTISRDNAKNTVYLQMNSLKPEDTAVYYCAATRTKRKFDYWGQGTQVTVSS | high polyreactivity |
| QVQLVESGGGLVQAGGSLRLSCAASAIIFAQYTMGWNRQAPGKERELVAAINRNGGSTYYADSVKGRFTISRDNAKNTVYLQMNSLKPEDTAVYYCNADALGFRYDYWGQGTQVTVSS | low polyreactivity |
